Values quoted from earlier work as cited in publication PMC8065807.

Molecular target: EGFR (Homo sapiens) (UniProt P00533)

## GE11
  Kd: 0.022 µM
